B1: anti-CAPRIN-1 mouse monoclonal antibody #3 (antibody, V domains shown)
VH: GGGLVKPGGSLKLSCAASGFTFSSYGMSWVRQTPEKRLEWVATISSGGSYTYYPDSVKGRFTISRDNAKNTLYLQMSSLRSEDTAMYYCASLASYYFDYWGQGTTLTVSS
VL: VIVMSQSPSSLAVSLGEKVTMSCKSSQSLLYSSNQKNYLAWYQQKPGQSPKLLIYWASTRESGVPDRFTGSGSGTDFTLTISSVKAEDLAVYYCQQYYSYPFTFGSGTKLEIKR
B2: anti-CAPRIN-1 mouse monoclonal antibody #6 (antibody, V domains shown)
VH: DAELVKPGASVKISCKASGYTFTDHSIHWVQQKPEQGLEWIGYISPGNGNIKYNEKFKGKATLTADKSSSTAYMQLNSLTSEDSAVYFCKRSLGRGGPYYFDYWGQGTTVTVSS
VL: DIVLTQAAPSLPVTPGESVSISCRSSKSLLHSNGNTYLYWFLQRPGQSPQLLIYRMSNLASGVPDRFSGSGSGTAFTLRISRVEAEDVGVYYCMQHREYPVTFGSGPN
notes: Mouse hybridoma antibody; detected with anti-mouse IgG
B3: anti-CAPRIN-1 mouse monoclonal antibody #4 (antibody, V domains shown)
VH: GAELVRSGASVKMSCKASGYSFTDYNMYWVKQTPGQGLEWIGYIYPGNGGTNYNQKFKGKATLTADTSSSTAYMQISSLTSEDSAVYFCARDYDDGGYAMDYWGQGTTVTVSS
VL: DIQMTQSPASLSASVGETVTITCRASGNIHNYLTWYQQKQGKSPQLLVYNAKTLADGVPSRFSGSGSGTQYSLKINRLQPEDFGSYYCQHFWNIPWTFGGGTKLNSR
B4: anti-CAPRIN-1 mouse monoclonal antibody #5 (antibody, V domains shown)
VH: GAELVRSGASVKMSCKASGYSFTDYNMYWVKQTPGQGLEWIGYIYPGNGGTNYNQKFKGKATLTADTSSSTAYMQISSLTSEDSAVYFCARDYDDGGYAMDYWGQGTTVTVSS
VL: DIQMTQSPASLSASVGETVTITCRASGNIHNYLTWYQQKQGKSPQLLVYNAKTLADGVPSRFSGSGSGTQYSLKINRLQPEDFGSYYCQHFWNIPWTFGGGTKLNSR
notes: as for B2

Key:
[1] = target: T1, human CAPRIN-1 protein on the cell surfaces of human cancer cell lines and in human cancer tissues (human, UniProt Q14444 2-709); assay: cell-based or functional assay
T1 sequence (looked up): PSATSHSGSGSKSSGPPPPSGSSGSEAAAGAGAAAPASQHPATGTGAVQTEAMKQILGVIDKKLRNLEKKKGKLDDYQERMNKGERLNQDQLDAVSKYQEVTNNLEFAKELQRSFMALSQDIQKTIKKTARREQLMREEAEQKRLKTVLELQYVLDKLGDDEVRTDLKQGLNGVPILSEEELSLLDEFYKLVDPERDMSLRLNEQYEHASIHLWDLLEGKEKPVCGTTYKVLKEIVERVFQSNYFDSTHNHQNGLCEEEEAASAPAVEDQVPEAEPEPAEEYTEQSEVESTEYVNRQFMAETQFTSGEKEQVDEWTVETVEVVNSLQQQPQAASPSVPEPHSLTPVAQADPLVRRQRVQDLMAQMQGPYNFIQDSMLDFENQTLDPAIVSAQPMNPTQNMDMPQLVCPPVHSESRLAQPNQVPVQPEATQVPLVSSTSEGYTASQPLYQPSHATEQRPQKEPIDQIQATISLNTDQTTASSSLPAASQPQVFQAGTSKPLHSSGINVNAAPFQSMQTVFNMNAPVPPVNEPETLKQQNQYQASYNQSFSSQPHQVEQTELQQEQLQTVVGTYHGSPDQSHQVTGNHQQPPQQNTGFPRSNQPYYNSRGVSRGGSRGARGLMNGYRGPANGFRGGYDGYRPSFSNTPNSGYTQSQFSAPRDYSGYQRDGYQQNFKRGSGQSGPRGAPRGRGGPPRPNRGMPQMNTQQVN

[2] = target: T1, human CAPRIN-1 protein on the cell …; assay: flow cytometry on the listed human cancer cell lines, culture supernatant, against negative control
Method: 10⁶ cells of each cell line were centrifuged in a 1.5 ml microcentrifuge tube. Each cell culture supernatant (100 μl) of CHO-K1 cells containing #1 obtained in (2) above and hybridomas producing #2, #3, #4, #5, and #6 obtained in Example 3 was added and then left to stand on ice for 1 hour. After washing with PBS, a FITC-labeled goat anti-human IgG (H+L) antibody (SouthernBiotech) and a FITC-labeled anti-mouse IgG (H+L) antibody (Invitrogen) diluted 500-fold with PBS containing 0.1% FBS were added and then left to stand on ice for 1 hour. After washing with PBS, fluorescence intensity was measured using a FACS Calibur (Becton, Dickinson). Meanwhile, procedures similar to the above were performed using a culture supernatant of CHO-K1 cells into which no antibody gene had been introduced and medium for culturing hybridomas, so that a negative control sample was prepared. […] Specifically, when the antibody #1 was used, fluorescence intensity was enhanced to 4700% in the case of SK-BR-3 and 5500% in the case of MDA-MB-231V. Also, when the antibodies #2, #3, #4, #5, and #6 were used, fluorescence intensity was enhanced. […] The percentage of enhancement in the above fluorescence intensity was expressed as percentage of increase in mean fluorescence intensity (MFI level) in each type of cell and calculated by the following formula.

[3] = target: T2, peptide of SEQ ID NO: 70 (partial sequence in the polypeptide of SEQ ID NO: 37) (human); assay: ELISA on immobilised synthetic peptides
T2 peptide: FTSGEKEQVDEW
Method: (§1) Each peptide was dissolved in 0.1M sodium carbonate buffer (pH 9.6) at a concentration of 30 μg/ml, added to a 96-well plate (Nunc, Product No. 436006) at 100 μl per well, and then left to stand at 4° C. overnight. The solution was discarded, 10 mM ethanolamine/0.1M sodium carbonate buffer (PH 9.6) was added at 200 μl per well, and then the plate was left to stand at room temperature for 1 hour. The solution was discarded, the plate was washed twice with PBS (PBST) containing 0.5% Tween20, so that the plate with each peptide immobilized thereto was prepared.
(§2) A cell culture supernatant containing the human-chicken chimeric monoclonal antibody (#1) and the mouse monoclonal antibodies (#2, #3, #4, #5, and #6) obtained in Example 4 (2) was added to the plate at 50 μl per well. After 1 hour of shaking at room temperature, the solution was removed, and then the plate was washed three times with PBST. Next, an HRP-labeled anti-human IgG (Invitrogen) antibody diluted 3000- to 4000-fold with PBST (a secondary antibody solution) was added to each well of the human-chicken chimeric monoclonal antibody and an HRP-labeled anti-mouse IgG (Invitrogen) antibody diluted 3000- to 4000-fold with PBST (a secondary antibody solution) was added to each well of the mouse monoclonal antibody, at 50 μl per well, and then the solution was removed, followed by six times of washing with PBST.
(§3) A TMB substrate solution (Thermo) was added at 100 μl per well, and the plate was left to stand for 15 to 30 minutes for coloring reaction. After color development, 1N sulfuric acid was added at 100 μl per well to stop the reaction and then absorbances at 450 nm and 595 nm were measured using an absorption spectrometer. As a result, the polypeptide of SEQ ID NO: 37 was identified as a CAPRIN-1 partial sequence that is recognized by all of the anti-CAPRIN-1 monoclonal antibodies #1 to #6. Furthermore, the peptide of SEQ ID NO: 69 was identified as a partial sequence in the above polypeptide of SEQ ID NO: 37, which is recognized by the monoclonal antibodies #1, #4, and #5. […]

[4] = target: T3, peptide of SEQ ID NO: 69 (partial sequence in the polypeptide of SEQ ID NO: 37) (human); assay: ELISA on immobilised synthetic peptides
T3 peptide: QQPQAASPSVPE
Method: as §1, §2, §3

| Binder | cytotoxic activity (ADCC) against A549 [1] [%] | cytotoxic activity (ADCC) against ACHN [1] [%] | cytotoxic activity (ADCC) against AML5 [1] [%] | cytotoxic activity (ADCC) against Caki-1 [1] [%] | cytotoxic activity (ADCC) against KYSE180 [1] [%] | cytotoxic activity (ADCC) against MDA-MB-157 [1] [%] | cytotoxic activity (ADCC) against MNK28 [1] [%] | cytotoxic activity (ADCC) against MNK45 [1] [%] | cytotoxic activity (ADCC) against QG56 [1] [%] | cytotoxic activity (ADCC) against Ramos [1] [%] | cytotoxic activity (ADCC) against SW480 [1] [%] | cytotoxic activity (ADCC) against SW756 [1] [%] | cytotoxic activity (ADCC) against T24 [1] [%] | cytotoxic activity (ADCC) against T98G [1] [%] | cytotoxic activity (ADCC) against U373 [1] [%] | percentage of increase in mean fluorescence intensity [2] [%] | binding result [3] | binding result [4] |
| --- | --- | --- | --- | --- | --- | --- | --- | --- | --- | --- | --- | --- | --- | --- | --- | --- | --- | --- |
| B1 | ≥ 24 | ≥ 14 | ≥ 10 | ≥ 23 | ≥ 22 | 32.4 | ≥ 15 | ≥ 10 | ≥ 20 | ≥ 10 | ≥ 17 | ≥ 16 | ≥ 18 | ≥ 12 | ≥ 16 | ≥ 20 | – | – |
| B2 | ≥ 24 | ≥ 14 | ≥ 10 | ≥ 23 | ≥ 22 | 19 | ≥ 15 | ≥ 10 | ≥ 20 | ≥ 10 | ≥ 17 | ≥ 16 | ≥ 18 | ≥ 12 | ≥ 16 | ≥ 20 | binds | – |
| B3 | ≥ 24 | ≥ 14 | ≥ 10 | ≥ 23 | ≥ 22 | 31 | ≥ 15 | ≥ 10 | ≥ 20 | ≥ 10 | ≥ 17 | ≥ 16 | ≥ 18 | ≥ 12 | ≥ 16 | ≥ 20 | – | – |
| B4 | ≥ 24 | ≥ 14 | ≥ 10 | ≥ 23 | ≥ 22 | 30.9 | ≥ 15 | ≥ 10 | ≥ 20 | ≥ 10 | ≥ 17 | ≥ 16 | ≥ 18 | ≥ 12 | ≥ 16 | ≥ 20 | – | binds |

From patent US20120301476A1 (TORAY INDUSTRIES, published 2012)
